The text below walks through data of patent US12497460B2, “Anti-MSR1 antibodies and methods of use thereof” (REGENERON PHARMACEUTICALS, INC., priority 2018, dated 2025).

A word on the Kd: it is the equilibrium constant for the complex coming apart. What is called t½ is the time needed for the level to fall by half in the phase considered.

Test [1] concerns the target T1, His9-hMSR1 (human MSR1 extracellular domain) (Homo sapiens, UniProt P21757).
T1 construct: human MSR1 extracellular domain expressed with a N-terminal nonahistidine tag; His9 (nonahistidine) (N); purchased R&D Systems 2708-MS
T1 sequence (P21757 77-451 limits assumed): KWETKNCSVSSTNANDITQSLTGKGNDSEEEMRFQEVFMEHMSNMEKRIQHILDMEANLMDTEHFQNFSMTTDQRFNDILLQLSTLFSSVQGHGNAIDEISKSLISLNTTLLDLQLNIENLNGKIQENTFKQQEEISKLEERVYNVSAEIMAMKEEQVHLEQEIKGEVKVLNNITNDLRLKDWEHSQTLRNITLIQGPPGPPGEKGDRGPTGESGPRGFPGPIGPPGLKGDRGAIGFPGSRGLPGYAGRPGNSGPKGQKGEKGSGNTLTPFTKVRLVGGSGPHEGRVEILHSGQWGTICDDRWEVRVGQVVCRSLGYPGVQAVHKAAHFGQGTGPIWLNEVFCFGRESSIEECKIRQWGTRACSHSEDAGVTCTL
The experiment in a line: Biacore surface plasmon resonance binding kinetics of anti-MSR1 mAbs, antibody-capture format. The note with it: analyte His9-hMSR1, NB = no binding observed; for kd: * = no dissociation observed, kd manually fixed at 1.00E−05; for ka: antibody-capture format; for Kd: calculated from kinetic rates; for t½: dissociative half-life. As for the experimental part:
(§1) Binding affinities and kinetic constants of human anti-MSR1 antibodies for different MSR1 reagents were determined by real-time surface plasmon resonance (Biacore 4000). All binding studies were performed in 10 mM HEPES, 150 mM NaCl, 3 mM EDTA, and 0.05% v/v Surfactant Tween-20, pH 7.4 (HBS-ET) running buffer at 25° C. and 37° C.
(§2) The association rate (ka) and dissociation rate (kd) were determined by fitting the real-time binding sensorgrams to a 1:1 binding model with mass transport limitation using Scrubber 2.0c curve-fitting software. Binding dissociation equilibrium constant (KD) and dissociative half-life (t½) were calculated from the kinetic rates as: […]

The target in test [2] is HMM-mfMSR1 (monkey MSR1 extracellular domain). Described as above. The note with it: analyte HMM-mfMSR1, NB = no binding observed; for kd: * = no dissociation observed, kd manually fixed at 1.00E−05; for ka: antibody-capture format; for Kd: calculated from kinetic rates; for t½: dissociative half-life. The protocol:
as §1, §2

In test [3] the target is T2, MSR1 on differentiated THP-1 cells (Homo sapiens, UniProt P21757).
T2 construct: endogenous in cells; host or cells: THP-1 cells differentiated with PMA
T2 sequence (P21757 1-451): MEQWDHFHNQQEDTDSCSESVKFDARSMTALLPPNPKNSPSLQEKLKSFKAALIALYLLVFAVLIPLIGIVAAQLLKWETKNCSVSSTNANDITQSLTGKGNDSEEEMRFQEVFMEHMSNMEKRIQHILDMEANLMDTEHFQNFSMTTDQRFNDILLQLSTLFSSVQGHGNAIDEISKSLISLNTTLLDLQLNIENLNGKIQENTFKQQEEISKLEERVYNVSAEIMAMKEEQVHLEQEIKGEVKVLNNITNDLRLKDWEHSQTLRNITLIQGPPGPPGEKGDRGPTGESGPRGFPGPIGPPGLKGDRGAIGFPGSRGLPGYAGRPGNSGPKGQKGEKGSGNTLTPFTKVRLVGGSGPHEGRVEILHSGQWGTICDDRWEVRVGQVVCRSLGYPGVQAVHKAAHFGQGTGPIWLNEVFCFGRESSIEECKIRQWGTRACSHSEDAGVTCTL
The experiment in a line: Binding and internalization of cell-surface expressed MSR1 in differentiated THP-1 cells. In kind it is cell-based. The note with it: 10 μg/mL antibody. As for the experimental part: Exemplary anti-MSR1 antibodies were assessed for their ability to bind and internalize MSR1 on MSR1-expressing cells.
The THP-1 cells were allowed to differentiate for 4 days at 37° C. in 5% CO2. […] The remaining two plates were incubated at 37° C. for 1 hour followed by fixation and staining for 20 minutes using a solution of 4% PFA+5 μM DRAQ5 diluted in PBS (internalization plates). After fixation, all plates were washed once with PBS. […] The remaining plates were incubated with PBS only. Confocal images were acquired on the Opera Phenix (Perkin Elmer) at 40× magnification. […] The total binding at 4° C. (RFU values of 4° C. unquenched wells), total binding at 37° C. (RFU values of 37° C. unquenched wells), the total internalized RFU, and % Internalization were determined for each antibody as shown in Table 14.
For all calculations, background fluorescence from unstained wells was subtracted from every well. Total internalized RFU was calculated as follows: Total RFU of 37° C. unquenched samples−Surface RFU at 37° C. Surface RFU is defined as unquenched RFU at 37° C.−quenched RFU at 37° C.)/QE. QE (quenching efficiency) is defined as: 1−(Total RFU of 4° C. quenched sample/Total RFU of 4° C. unquenched sample). The % Internalization was determined from the following formula: (Total internalized RFU at 37° C./Total RFU at 37° C.)*100.

For test [4], the system named is parental HEK293 cells. The experiment in a line: Electrochemiluminescence antibody binding assay, non-specific binding control cells. In kind it is cell-based, human.
In test [5] the target is T3, PMA-treated THP-1 cells (endogenously expressed human MSR1) (Homo sapiens, UniProt P21757).
T3 construct: endogenous in cells; host or cells: THP-1 cells differentiated with PMA
T3 sequence (P21757 1-451): T2 sequence (P21757 1-451)
The experiment in a line: Electrochemiluminescence antibody binding assay on MSR1-expressing cells. In kind it is cell-based.

HMM-mfMSR1 (monkey MSR1 extracellular domain), sequence (as listed by the source): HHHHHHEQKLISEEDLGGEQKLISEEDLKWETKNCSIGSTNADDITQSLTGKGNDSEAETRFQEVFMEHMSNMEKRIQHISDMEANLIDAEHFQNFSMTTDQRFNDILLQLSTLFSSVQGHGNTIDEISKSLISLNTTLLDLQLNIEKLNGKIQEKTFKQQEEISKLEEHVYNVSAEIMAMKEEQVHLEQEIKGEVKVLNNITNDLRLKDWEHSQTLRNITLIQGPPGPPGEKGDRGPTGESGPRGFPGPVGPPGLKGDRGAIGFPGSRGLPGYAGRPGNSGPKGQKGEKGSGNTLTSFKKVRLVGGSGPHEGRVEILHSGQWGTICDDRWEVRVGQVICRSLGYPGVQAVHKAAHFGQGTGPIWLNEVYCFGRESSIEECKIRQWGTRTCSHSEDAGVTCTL

B1: H1H27729P-N297Q: anti-MSR1 antibody "made with an N297Q single point mutation in human Fcγ portion" (antibody, V domains shown)
VH: QVQLVESGGGLVKPGGSLRLSCAASGFIFSDYYMSWIRQAPGKGLEWVSYISSSGTTIYGDSVKGRFTMSRDNAKNSLYLQMNSLRAEDTAVYYCARNYALFDYWGQGTLVTVSS
VL: DIQMTQSPSSLSASVGDRVTITCQASQDISKYLNWYQQKPGKAPKLLIYYTSNLETGVPSRFSGSGSGTDFTFTISSLQPEDIATYYCHQSDYLPFTFGPGTKVDIKR
Consider B1, for which the kd came out at 0.00107 s⁻¹ in test [1] (25° C.), 0.00204 s⁻¹ in test [1] (37° C.), 0.00212 s⁻¹ in test [2] (25° C.) and 0.00349 s⁻¹ in test [2] (37° C.). The ka in test [1] (25° C.) worked out at 197000 M⁻¹ s⁻¹; in test [1] (37° C.), 239000 M⁻¹ s⁻¹; in test [2] (25° C.), 269000 M⁻¹ s⁻¹; in test [2] (37° C.), 407000 M⁻¹ s⁻¹. Besides, in test [3], the “% Internalization” value is recorded as 57.0%. Moreover, the “Total Binding at 4° C.” value in test [3] (4° C.) was 1930685. In addition, in test [3] (37° C.), the “Total Binding at 37° C.” value worked out at 6607625. Further, in test [3] (37° C.), the “Total Internalized RFU” value is on record as 3763127 RFU. In addition, the “Ratio of 11 nM Antibody Binding Signal (RLU) to isotype control, HEK293” value (“Ratio of 11 nM Antibody Binding Signal … HEK293” for short) in test [4] is reported as 3.

B2: H1H21227N: "anti-MSR1 antibodies ... (21227N, 21231N, 21234N) were produced with the original human Fcγ portion"; "H1H" = human IgG1 Fc (antibody, V domains shown)
VH: QVQLVQSGAEVKKPGASVKVSCKVSGYTLTELSIHWVRQVPGKGLEWMGGFDPEEGETIFAQEFRDRVTLTEDTSPDTAYMELSSLKSEDAAVYYCTTPRYCNNGICYDYWGQGTLVTVSS
VL: DIQMTQSPSSLSASVGDRVTITCRASQSISNYLNWYQQKPGKAPKLLIYTASSLQSGVPSRFSGSGSGTDFTLTISSLQTEDFATYYCQQSYSNFPITFGQGTRLEIKR
modifications: human IgG1 Fc
notes: "anti-MSR1 antibodies ; (21227N, 21231N, 21234N) were produced with the original human Fcγ portion"; "H1H" = human IgG1 Fc
B2: the “Ratio of 11 nM Antibody Binding Signal (RLU) to isotype control, PMA-treated THP-1” value in test [5] was 7. Moreover, in test [1] (25° C.), the kd was determined as 1.44e-05 s⁻¹, the ka worked out at 1.2e+06 M⁻¹ s⁻¹, the Kd is 0.012 nM and the t½ turned out to be 13.3 h. Besides, in test [1] (37° C.), the kd was 1.85e-05 s⁻¹, the ka came to 2.56e+06 M⁻¹ s⁻¹, the dissociation constant Kd was 0.00724 nM and the t½ came out at 10.4 h. Moreover, in test [2] (25° C.), the kd amounted to 4.41e-05 s⁻¹, the ka is 1.27e+06 M⁻¹ s⁻¹, the Kd was 0.0348 nM and the t½ stood at 4.37 h. Also, in test [2] (37° C.), the kd was 1.00E−05* s^−1, the ka turned out to be 2.76e+06 M⁻¹ s⁻¹, the Kd is 0.00362 nM and the t½ was found to be 19.25 h. The “Ratio of 11 nM Antibody Binding Signal … HEK293” value in test [4] is listed as 1.

B3: H1H21227N-N297D: "The 21227N antibody was also produced as a third version with a N297D mutation" (antibody, V domains shown)
VH: B2 VH
VL: B2 VL
Consider B3, for which the “Ratio of 11 nM Antibody Binding Signal (RLU) to isotype control, PMA-treated THP-1” value in test [5] turned out to be 6. In addition, in test [1] (25° C.), the kd came out at 3.79e-05 s⁻¹, the ka worked out at 1.14e+06 M⁻¹ s⁻¹, the Kd is 0.0333 nM and the t½ is 5.08 h. In addition, in test [1] (37° C.), the kd is 1.00E−05* s^−1, the ka is 2.73e+06 M⁻¹ s⁻¹, the Kd is 0.00366 nM and the t½ amounted to 19.25 h. In test [2] (25° C.), the kd was 4.03e-05 s⁻¹, the ka is 1.35e+06 M⁻¹ s⁻¹, the Kd was 0.0299 nM and the t½ came out at 4.78 h. In test [2] (37° C.), the kd came to 2.42e-05 s⁻¹, the ka is 2.68e+06 M⁻¹ s⁻¹, the Kd is 0.00903 nM and the t½ was 7.95 h. The “Ratio of 11 nM Antibody Binding Signal … HEK293” value in test [4] is 1.
